Tests used:
Assay type in all cases: cell-based, Narcissus aff. pseudonarcissus MK-2014
Settings in all cases: heme
[1] = substrate: COc1cc2c(cc1O)[C@@H](Cc1ccc(O)cc1)NCC2; test: LC-MS/MS enzyme kinetics with Sf9-expressed CYP96T1
[2] = substrate: COc1cc2c(cc1O)[C@H](Cc1ccc(O)cc1)NCC2; test: as above
[3] = substrate: COc1ccc(CNCCc2ccc(O)cc2)cc1O; test: LC-MS/MS enzyme kinetics with Sf9-expressed CYP96T1; CPR-only negative control
[4] = substrate: COc1ccc(CN(C)CCc2ccc(O)cc2)cc1O; test: as above

B1: CYP96T1 (Narcissus aff. pseudonarcissus MK-2014) (protein)
chain: MATSSSAWLMFSDHYPEILIAIACFLIFSLLLSARSSSEDSLPYNWPIFGMLPAIISNNQFNDFTTARLRKMGWTFIFKGPWLLDMDYIFTCDPSNINHMFNDNFENYPKGELGKVFDIFGNNIFNADGDLWHDHRKMAQTILWDGNYRTMQATFIRNKMDNALIPILDSAASKRKPVDLQDVFFRFTFDTSCFSVLAADPESLTMEFPAVPFSKAADQALDAALTRHITPRLIWKLKRFFNVGSERTLAVAWKVIDSYIYDKIAELKAKRKLVGKINSYDAVSFYMDNFNIHDDKFLRDNAFTYLLAQRNTQSLTMTWLFYALFENPKVELKILSELKSIVDESSERKFNDGFALFDSNMIQSAIYLHATLCEALRIYPPVPFEIKDAHKADVLPSGHKVRAGEKILFSPYAMARMKGIWGDDCLEFKPERWITGNGTLKHEPAYKFFAFSAGPRICLGKELSFTQMKMVVATIIYNFHLQMVKGHVVEQSNSILMDMKHGLMVQVRKRSVM
notes: CYP96T1 ORF (GenBank KT693311) expressed in Sf9 cells, co-expressed with Eschscholzia californica CPR
Km [1]: 659 ± 104 µM
kcat [1]: 0.0345 ± 0.00233 s⁻¹
kcat/Km [1]: 52.5 M⁻¹ s⁻¹
Km [2]: 637 ± 156 µM
kcat [2]: 0.0223 ± 0.0025 s⁻¹
kcat/Km [2]: 35.2 M⁻¹ s⁻¹
Km [3]: 1.13 ± 0.54 µM
kcat [3]: 0.25 ± 0.0338 s⁻¹
kcat/Km [3]: 217000 M⁻¹ s⁻¹
Km [4]: 3.28 ± 2.27 µM
kcat [4]: 0.0407 ± 0.009 s⁻¹
kcat/Km [4]: 12400 M⁻¹ s⁻¹
